The target of test [1] is human CTLA4 in cells of Ctla4 h/h knock-in mice (human) (UniProt P16410). Put plainly: flow cytometry, intracellular staining of CTLA4 in spleen cells of Ctla4 h/h mice, gated on CD3+CD4+. (In general: Flow cytometry measures light scatter and fluorescence of single cells or particles in a stream.)
For test [2], the target named is mouse CTLA4-Fc fusion protein (mouse) (UniProt P09793). Put plainly: blocking ELISA: plate B7-2, biotinylated mouse CTLA4-Fc with the antibody, HRP-streptavidin; blocked ligand B7-2. (ELISA stands for enzyme-linked immunosorbent assay.)
In test [3] the target is mouse CTLA4 in cells of Ctla4 m/m (WT) mice (mouse) (UniProt P09793). Put plainly: flow cytometry, intracellular staining of CTLA4 in spleen cells of Ctla4 m/m mice, gated on CD3+CD4+.
Test [4] deals with mouse CTLA4-Fc fusion protein (mouse) (UniProt P09793). Briefly: blocking ELISA: plate B7-1, biotinylated mouse CTLA4-Fc with the antibody, HRP-streptavidin; blocked ligand B7-1.
Test [5] addresses mouse CTLA4 in cells of Ctla4 m/m (WT) mice (mouse) (UniProt P09793). Briefly: cell-based or functional assay.
The target of test [6] is Control IgG1-Fc (human) [IgG part: P01857]. Put plainly: ELISA on coated target; binder 1000 ng/ml.
The target is the same in test [7]. Put plainly: ELISA on coated target; binder 10 ng/ml.
Test [8] shares this target. Briefly: ELISA on coated target; binder 100 ng/ml.
The target is the same in test [9]. Briefly: ELISA on coated target; binder 0 (background).
In test [10] the target is CTLA-4Fc mutant M11 (AA103-106, YLGI>fcGm) (human). Briefly: ELISA, plate-coated CTLA-4Fc protein, biotinylated B7-1 Ig at 100 ng/ml, HRP-streptavidin.
Test [11] has the same target. Briefly: ELISA, plate-coated CTLA-4Fc protein, biotinylated B7-1 Ig at 1 ug/ml, HRP-streptavidin.
Test [12] has the same target. Briefly: ELISA, plate-coated CTLA-4Fc protein, biotinylated B7-1 Ig at 10 ng/ml, HRP-streptavidin.
Test [13] shares this target. Briefly: ELISA, plate-coated CTLA-4Fc protein, biotinylated B7-1 Ig at 0 (blank), HRP-streptavidin.

Where “and” joins values, the source holds several entries; their conditions need not be identical. Equal values may be shown once.

CTLA-4Fc mutant M11 (AA103-106, YLGI>fcGm) (human), sequence (chain, as listed by the source mutant limits assumed): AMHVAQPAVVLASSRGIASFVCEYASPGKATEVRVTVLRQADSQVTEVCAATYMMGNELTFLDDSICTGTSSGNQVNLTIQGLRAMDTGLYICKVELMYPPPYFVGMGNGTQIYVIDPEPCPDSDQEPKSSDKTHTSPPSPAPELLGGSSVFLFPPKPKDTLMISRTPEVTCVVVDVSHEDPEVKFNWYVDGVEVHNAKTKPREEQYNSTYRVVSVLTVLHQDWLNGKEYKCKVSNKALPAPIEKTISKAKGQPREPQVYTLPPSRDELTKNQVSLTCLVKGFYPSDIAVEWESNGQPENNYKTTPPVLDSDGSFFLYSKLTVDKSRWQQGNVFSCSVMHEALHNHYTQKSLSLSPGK
anti-mouse CTLA4 mAb 9D9 (antibody), sequence (light): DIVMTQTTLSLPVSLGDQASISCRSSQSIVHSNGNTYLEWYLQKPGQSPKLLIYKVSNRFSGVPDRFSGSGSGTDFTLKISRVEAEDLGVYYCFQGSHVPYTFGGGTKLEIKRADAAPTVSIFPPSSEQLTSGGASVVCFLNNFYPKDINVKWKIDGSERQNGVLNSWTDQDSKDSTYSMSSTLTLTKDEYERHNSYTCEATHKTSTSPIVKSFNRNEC
anti-mouse CTLA4 mAb 9D9 (antibody), sequence (heavy): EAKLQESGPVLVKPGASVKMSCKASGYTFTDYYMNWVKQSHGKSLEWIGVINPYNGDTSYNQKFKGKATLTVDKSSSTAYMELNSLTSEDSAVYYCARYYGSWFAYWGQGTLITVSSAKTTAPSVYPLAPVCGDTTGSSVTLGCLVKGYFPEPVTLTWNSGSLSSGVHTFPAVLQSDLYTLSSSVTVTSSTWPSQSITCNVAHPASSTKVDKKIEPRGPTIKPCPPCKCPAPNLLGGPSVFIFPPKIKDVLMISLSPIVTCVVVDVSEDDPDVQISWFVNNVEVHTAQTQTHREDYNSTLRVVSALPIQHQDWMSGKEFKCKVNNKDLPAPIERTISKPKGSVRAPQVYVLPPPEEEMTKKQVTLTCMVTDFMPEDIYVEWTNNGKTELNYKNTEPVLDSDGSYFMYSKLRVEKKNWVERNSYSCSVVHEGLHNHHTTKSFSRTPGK
human CTLA4 in cells of Ctla4 h/h knock-in mice (human), sequence (P16410 36-223): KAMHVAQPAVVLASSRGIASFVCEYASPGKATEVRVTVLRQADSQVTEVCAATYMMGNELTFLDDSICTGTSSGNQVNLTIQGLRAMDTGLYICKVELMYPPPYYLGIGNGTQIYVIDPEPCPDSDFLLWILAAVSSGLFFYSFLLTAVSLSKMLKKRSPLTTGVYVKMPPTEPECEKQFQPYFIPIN

With anti-mouse CTLA4 mAb 4F10 (antibody), the number over the gate (FoxP3-positive, 4F10-stained) among CD3+CD4+ splenocytes in [1] amounted to 0.107; in [3], 9.52. Also, the IC50 (read off the curve) in test [2] amounted to 0.3 µg/mL; in [4], 1 µg/mL.

Consider anti-mouse CTLA4 mAb 9D9 (antibody), for which the B7-1 level on CD11c hi DC of WT mice 24 h after 500 µg antibody in test [5] was determined as 15%.

With chimeric L3D10 antibody, the OD450 in [6] is 1.39 OD and 1.48 OD; in [7], 0.201 OD and 0.182 OD; in test [8] it was 0.315 OD and 0.326 OD; in test [9], 0.198 OD and 0.184 OD.

Take “human B7-1 Fc fusion protein (from UniProt P33681 35-242)”: the OD450 in test [10] is 0.884 OD450 and 1.04 OD450; in [11], 3.05 OD450 and 3.16 OD450; in test [12], 0.22 OD450 and 0.217 OD450; in test [13] it was 0.174 OD450 and 0.163 OD450.

The record behind these values is patent US20190127468A1.
